Measurements from US8168595B2, “Antithrombotic dual inhibitors comprising a biotin residue” (priority 2004, dated 2012).
Counter-ions that a name gives are not always drawn. Like-named read-outs stand apart in the source and are kept apart here.

What was measured:
[1] = Pharmacokinetics - neutralization experiment with avidin in rats; format: in vivo; settings: rat, 100 nmol/kg s.c.
Experimental: 3.2 Pharmacokinetics—Neutralization Experiment:
Rats were treated with compound III of this invention, or Org 42675 at a dose of 100 nmol/kg s.c. At t=2 h, a blood sample was taken and 10 mg/kg of Avidin (from egg white, Sigma) was administered i.v. to the rats treated with compound III of this invention or Org 42675. Blood was sampled at 0.17, 0.5, 1, 2, 3, and 7 hours subsequently. The blood was treated as described in the pharmacokinetic experiment and the concentration of the samples was determined by measuring the (residual) anti-Xa or anti-IIa activity. (see FIG. 2)

[2] = Pharmacokinetics after s.c. administration in rats; format: in vivo, male Wistar rats; settings: rat, 100 nmol/kg s.c.; for AUC(0-inf) / MRT / Tmax / half-life / Cmax: male, Wistar, sc; for AUC(0-inf) / MRT / Tmax / half-life: plasma, 100 nmol/kg; for AUC(0-inf) / MRT / Tmax / half-life / Cmax / Cl / Vz: mean ± s.e.m.; for AUC(0-inf) / MRT / Tmax / Cmax / Cl / Vz: n = 3; for half-life: n = 3, read-out: T½ eli (converted); for pharmacokinetic behavior in rats, compound III compared with Org 42675: within the variability of the experiment
Experimental: 3.1 Pharmacokinetics The pharmacokinetic properties of Org 42675 and of compound III of this invention were studied in male Wistar rats of 300-400 gr. The rats were anaesthetized by inhalation of a mixture of O2/N2O/isoflurane, after which the right jugular vein was cannulated. The next day rats were treated s.c. with doses of 100 nmol/kg. After s.c. administration, blood was sampled at several time intervals. Then the blood was centrifuged after which the plasma was siphoned off and stored at −20° C. until use. The concentration of the tested compound was measured amidolytically using S-2222 or S-2238 as substrates (Chromogenix, Chromogenics Ltd, Molndal, Sweden) to determine the anti-Xa or anti-IIa activity, respectively. Both procedures were based on the methods of Teien and Lie (Teien A N, Lie M. Evaluation of an amidolytic heparin assay method increased sensitivity by adding purified antithrombin III. Thromb. Res. 1977, 10: 399-410). The concentrations in the obtained plasma samples were determined against a calibration curve which was made of the stock solution of the tested compound itself. The concentration in the samples was expressed in nmol/mL and the kinetic parameters were calculated with the noncompartment model of WinNonlin. (see FIG. 1)

factor Xa = assay: In vitro amidolytic anti-factor Xa activity in human plasma (S2222); format: biochemical; settings: human plasma pH 7.4, substrate S2222; read-out: Anti-Xa Human plasma pH 7.4 IC-50
Experimental: (§1) In Vitro Test for Determination of the Anti-Factor Xa and Factor IIa Activity in Human Plasma The anti-factor Xa and IIa activity of the tested compounds in human plasma were measured amidolytically using S2222 or S2238 (Chromogenix, Chromogenics Ltd, Molndal, Sweden) as substrates, respectively. The protcols were based on the method described by Teien and Lie. (Teien A N, Lie M. Evaluation of an amidolytic heparin assay method increased sensitivity by adding purified antithrombin III. Thromb. Res. 1977, 10: 399-410). Both activities are expressed in IC-50 (Mol/L).

factor IIa = factor IIa (Homo sapiens, UniProt P00734); assay: In vitro amidolytic anti-factor IIa activity in human plasma (S2238); format: biochemical; settings: human plasma pH 7.4, substrate S2238; read-out: Anti-IIa Human plasma pH 7.4 IC-50
Experimental: as §1

[3] = in vivo; cited from earlier work
[4] = experimental thrombosis; cited from earlier work
[5] = plasma level by anti-IIa activity
[6] = plasma level by anti_Xa activity

SMILES: COc1cc(C)c(S(=O)(=O)N[C@@H](CC(=O)NCCCC(=O)N[C@@H](CCCCNC(=O)CCCC[C@@H]2SC[C@@H]3NC(=O)N[C@@H]32)C(=O)NCCOCCOCCOCCO[C@H]2[C@H](OC)[C@@H](OC)[C@@H](O[C@H]3[C@H](OC)[C@@H](OC)[C@H](O[C@H]4[C@H](OS(=O)(=O)O)[C@@H](OS(=O)(=O)O)[C@@H](O[C@H]5[C@H](OC)[C@@H](OC)[C@H](O[C@H]6[C@H](OC)[C@@H](OS(=O)(=O)O)[C@@H](OC)O[C@@H]6COS(=O)(=O)O)O[C@H]5C(=O)O)O[C@@H]4COS(=O)(=O)O)O[C@@H]3C(=O)O)O[C@@H]2COS(=O)(=O)O)C(=O)N[C@H](Cc2ccc(C(=N)N)cc2)C(=O)N2CCCCC2)c(C)c1C [Compound III, sodium salt]
- neutralization of antithrombotic activity ((residual) anti-Xa and anti-IIa activity) by avidin ([1]; avidin 10 mg/kg i.v.): can be neutralized
- AUC(0-inf) [2, 5]: 5 ± 0.6 µM·h
- MRT [2, 5]: 4.3 ± 0.3 h
- Tmax [2, 5]: 1.5 ± 0.5 h
- half-life [2, 5]: 2.7 ± 0.5 h
- AUC(0-inf) [2, 6]: 7.2 ± 0.2 µM·h
- MRT [2, 6]: 5.9 ± 0.5 h
- Tmax [2, 6]: 1.2 ± 0.4 h
- half-life [2, 6]: 3.9 ± 0.3 h
- Cmax [2, 6]: 1100 ± 100 nM
- Cl [2, 5]: 0.343 ± 0.04 mL/min/kg
- Vz [2, 5]: 0.078 ± 0.0042 L/kg
- Cl [2, 6]: 0.232 ± 0.0067 mL/min/kg
- Vz [2, 6]: 0.078 ± 0.0046 L/kg
- pharmacokinetic behavior in rats, compound III compared with Org 42675 [2]: the same pharmacokinetic behavior
- IC50 (factor Xa): 0.843 nM
- IC50 (factor IIa): 16.2 nM

SMILES: COc1cc(C)c(S(=O)(=O)N[C@@H](CC(=O)NCCCC(=O)NCCOCCOCCOCCO[C@H]2[C@H](OC)[C@@H](OC)[C@@H](O[C@H]3[C@H](OC)[C@@H](OC)[C@H](O[C@H]4[C@H](OS(=O)(=O)O)[C@@H](OS(=O)(=O)O)[C@@H](O[C@H]5[C@H](OC)[C@@H](OC)[C@H](O[C@H]6[C@H](OC)[C@@H](OS(=O)(=O)O)[C@@H](OC)O[C@@H]6COS(=O)(=O)O)O[C@H]5C(=O)O)O[C@@H]4COS(=O)(=O)O)O[C@@H]3C(=O)O)O[C@@H]2COS(=O)(=O)O)C(=O)N[C@H](Cc2ccc(C(=N)N)cc2)C(=O)N2CCCCC2)c(C)c1C [Org 42675, reference compound]
- prolonged half-life in comparison to the corresponding non-conjugated direct thrombin inhibitor derived from NAPAP [3]: 10 fold
- AUC(0-inf) ([1]; Wistar, plasma, subcutaneous, avidin 10 mg/kg i.v. at t = 2 h, calculated from T = 2 h, anti_Xa activity, mean ± s.e.m., n = 3): 4.8 ± 0.6 µM·h
- pharmacokinetic behavior on addition of avidin ([1]; avidin 10 mg/kg i.v. at t = 2 h): not affected
- efficacy in comparison with argatroban, heparin and fondaparinux [4]: improved efficacy
- AUC(0-inf) [2, 6]: 5.3 ± 0.3 µM·h
- MRT [2, 6]: 4.6 ± 0.2 h
- Tmax [2, 6]: 2.3 ± 0.2 h
- half-life [2, 6]: 2.7 ± 0.2 h
- Cmax [2, 6]: 1000 ± 20 nM
- Cl [2, 6]: 0.318 ± 0.0183 mL/min/kg
- Vz [2, 6]: 0.074 ± 0.0045 L/kg
- pharmacokinetic behavior in rats, compound III compared with Org 42675 [2]: the same pharmacokinetic behavior
- IC50 (factor Xa): 0.767 nM
- IC50 (factor IIa): 17.8 nM
